Experimental findings from US20170189510A1 are described below.

The test deals with HLA-A*24 (human). Kind of test: UV-ligand exchange, anti-b2m ELISA. For orientation: In an ELISA, binding on a coated surface is turned into a signal by an enzyme label.
In turn, TYGDAGLTYTF [peptide SEQ ID No 283 …] returned a peptide exchange yield of 50 to 75%.
In turn, KYPVEWAKF [peptide SEQ ID No 289 …] showed a peptide exchange yield of more than 75%.
DYTTWTALL [peptide SEQ ID No 165 …] gave a peptide exchange yield of more than 75%.
Next, IYLVSIPEL [peptide SEQ ID No 161 …]: more than 75%; YYVESGKLF [peptide SEQ ID No 166 …]: more than 75%.
The figure for KFSSFSLFF [peptide SEQ ID No 164 …] is 50 to 75%; for EYNQWFTKL [peptide SEQ ID No 176 …] it is 50 to 75%.
Next, LYIDRPLPYL [peptide SEQ ID No 196 …]: 50 to 75%.
For the molecule LYNKGFIYL [peptide SEQ ID No 159 …], the peptide exchange yield is more than 75%.
The figure for VYVGGGQIIHL [peptide SEQ ID No 174 …] is 50 to 75%.
The figure for RYLNKAFHI [peptide SEQ ID No 284 …] is 50 to 75%.
With YYEVHKELF [peptide SEQ ID No 175 …], the peptide exchange yield is more than 75%.
LFIPSSKLLFL [peptide SEQ ID No 171 …] gave a peptide exchange yield of 50 to 75%.
Next, EYSLFPGQVVI [peptide SEQ ID No 197 …]: 50 to 75%; HYSQELSLLYL [peptide SEQ ID No 158 …]: more than 75%; NYINRILKL [peptide SEQ ID No 167 …]: more than 75%.
The figure for RYAEEVGIF [peptide SEQ ID No 199 …] is 50 to 75%.
As to VYTLDIPVL [peptide SEQ ID No 160 …], the peptide exchange yield was more than 75%.
In turn, VFTRVSSFL [peptide SEQ ID No 162 …] showed a peptide exchange yield of 50 to 75%.
In turn, RYPDNLKHL [peptide SEQ ID No 286 …] gave a peptide exchange yield of 20 to 49%.
On to TYSVSFPMF [peptide SEQ ID No 195 …], for which the peptide exchange yield was more than 75%.
Regarding IYSWILDHF [peptide SEQ ID No 173 …], the peptide exchange yield was more than 75%.
Next, DYLKGLASF [peptide SEQ ID No 163 …]: more than 75%; KYQDILETI [peptide SEQ ID No 168 …]: more than 75%; VYVSDIQEL [peptide SEQ ID No 288 …]: 50 to 75%.
As for AYTLIAPNI [peptide SEQ ID No 169 …], the peptide exchange yield is 50 to 75%.
Consider VYEDQVGKF [peptide SEQ ID No 170 …], for which the peptide exchange yield is 20 to 49%.
